The values below come from patent CN102827282A (LIN HONG, dated 2012).

The test addresses T1, 重组人Trop-2蛋白 (human, UniProt P09758 27-274, limits assumed).
T1 construct: Purified recombinant protein coated on ELISA plates; also called recombinant human Trop-2 protein; 重组的Trop-2蛋白
T1 sequence (looked up): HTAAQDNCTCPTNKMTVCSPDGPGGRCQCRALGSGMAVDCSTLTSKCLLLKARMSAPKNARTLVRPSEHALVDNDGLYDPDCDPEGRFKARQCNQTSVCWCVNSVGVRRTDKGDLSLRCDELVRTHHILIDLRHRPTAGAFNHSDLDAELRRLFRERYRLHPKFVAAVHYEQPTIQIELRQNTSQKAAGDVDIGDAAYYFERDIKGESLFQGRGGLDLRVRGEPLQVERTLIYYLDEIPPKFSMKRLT
Briefly: phage ELISA of single clones after five rounds of panning on recombinant human Trop-2.

B1: 抗Trop-2的特异性人源Fab抗体 (Fab, V domains shown)
VH: QVQLVESGGGVVQPGRSLRLSCAASGFTFSSYGMHWVRQAPGKGLEWVAVIWYDGSNKYYADSVKGRFTISRDNSKNTLYLQMNSLRAEDTAVYYCARDPGWGFDYWGQGTLVTVSS
VL: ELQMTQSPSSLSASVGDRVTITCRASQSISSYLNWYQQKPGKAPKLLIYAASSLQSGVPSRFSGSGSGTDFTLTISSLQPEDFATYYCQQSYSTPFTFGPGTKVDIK
notes: also called 抗Trop-2抗体Fab; pComb3x-Fab
With B1, the binding result is recorded as “binds”.
